Results published in the supplement of paper PMC10567573.

B1: ADAMTS4 (parent)
chain: SFRKFRYGYNNVVTIPAGATHILV

Variants of: B1
Assay: protein stability index of a GFP-peptide fusion (GPS, HEK-293T) (PSI 1-6); higher = more stable
Conditions: c terminus: a fixed tail appended
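Also: lentivirally expressed fusions sorted by FACS into six bins by GFP to DsRed ratio, PSI derived from sequencing read proportions per bin multiplied by bin number.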

Variant | protein stability index
SFRKFRYGYNNDVTIPAGATHILV | 3.98
SFRKFRYGYNNWVTIPAGATHILV | 2.09
SFRKFRYGYNNEVTIPAGATHILV | 2.4
SFRKFRYGYNNRVTIPAGATHILV | 1.7
SFRKFRYGYNNMVTIPAGATHILV | 2.29
SFRKFRYGYNNFVTIPAGATHILV | 1.71
SFRKFRYGYNNTVTIPAGATHILV | 3.03
SFRKFRYGYNNIVTIPAGATHILV | 3.16
SFRKFRYGYNNNVTIPAGATHILV | 1.87
SFRKFRYGYNNCVTIPAGATHILV | 2.95
SFRKFRYGYNNQVTIPAGATHILV | 1.26
SFRKFRYGYNNHVTIPAGATHILV | 2.33
SFRKFRYGYNNPVTIPAGATHILV | 2.13
SFRKFRYGYNNAVTIPAGATHILV | 2.25
SFRKFRYGYNNKVTIPAGATHILV | 2.34
SFRKFRYGYNNGVTIPAGATHILV | 3.44
SFRKFRYGYNNYVTIPAGATHILV | 2.88
SFRKFRYGYNNSVTIPAGATHILV | 2.08
SFRKFRYGYNNLVTIPAGATHILV | 2.58
SFRKFRYGYNDVVTIPAGATHILV | 2.92
SFRKFRYGYNFVVTIPAGATHILV | 1.71
SFRKFRYGYNQVVTIPAGATHILV | 1.56
SFRKFRYGYNPVVTIPAGATHILV | 2.59
SFRKFRYGYNEVVTIPAGATHILV | 2.07

Variant | protein stability index
SFRKFRYGYNIVVTIPAGATHILV | 2.04
SFRKFRYGYNCVVTIPAGATHILV | 2.42
SFRKFRYGYNAVVTIPAGATHILV | 3.51
SFRKFRYGYNLVVTIPAGATHILV | 1.53
SFRKFRYGYNKVVTIPAGATHILV | 1.61
SFRKFRYGYNHVVTIPAGATHILV | 3.34
SFRKFRYGYNRVVTIPAGATHILV | 1.57
SFRKFRYGYNVVVTIPAGATHILV | 2.57
SFRKFRYGYNGVVTIPAGATHILV | 2.89
SFRKFRYGYNWVVTIPAGATHILV | 1.9
SFRKFRYGYNTVVTIPAGATHILV | 2.59
SFRKFRYGYNMVVTIPAGATHILV | 2.27
SFRKFRYGYNSVVTIPAGATHILV | 2.94
SFRKFRYGYNYVVTIPAGATHILV | 1.19
SFRKFWYGYNNVVTIPAGATHILV | 2.86
SFRKFYYGYNNVVTIPAGATHILV | 2.15
SFRKFRYGYNNVVTIRAGATHILV | 1.76
SFRKFRYGYNNVVTIGAGATHILV | 2.36
SFRKFRYGYNNVVTIWAGATHILV | 2.05
SFRKFRYGYNNVVTIDAGATHILV | 3.51
SFRKFRYGYNNVVTIEAGATHILV | 2.83
SFRKFRYGYNNVVTIMAGATHILV | 2.59
SFRKFRYGYNNVVTIHAGATHILV | 2.4
SFRKFRYGYNNVVTITAGATHILV | 1.36

Variant | protein stability index
SFRKFRYGYNNVVTISAGATHILV | 2.5
SFRKFRYGYNNVVTIVAGATHILV | 1.87
SFRKFRYGYNNVVTILAGATHILV | 1.81
SFRKFRYGYNNVVTIQAGATHILV | 2.25
SFRKFRYGYNNVVTICAGATHILV | 2.46
SFRKFRYGYNNVVTIIAGATHILV | 2.63
SFRKFRYGYNNVVTIFAGATHILV | 2.57
SFRKFRYGYNNVVTIKAGATHILV | 2.19
SFRKFRYGYNNVVTIAAGATHILV | 2.65
SFRKFRYGYNNVVTRPAGATHILV | 1.44
SFRKFRYGYNNVVTGPAGATHILV | 1.4
SFRKFRYGYNNVVTYPAGATHILV | 2.11
SFRKFRYGYNNVVTAPAGATHILV | 2.17
SFRKFRYGYNNVVTMPAGATHILV | 2.28
SFRKFRYGYNNVVTFPAGATHILV | 1.55
SFRKFRYGYNNVVTDPAGATHILV | 2.35
SFRKFRYGYNNVVTSPAGATHILV | 2.48
SFRKFRYGYNNVVTWPAGATHILV | 1.86
SFRKFRYGYNNVVTKPAGATHILV | 2.41
SFRKFRYGYNNVVTVPAGATHILV | 1.5
SFRKFRYGYNNVVTPPAGATHILV | 1.52
SFRKFRYGYNNVVTNPAGATHILV | 1.57
SFRKFRYGYNNVVTHPAGATHILV | 2.01
SFRKFRYGYNNVVTTPAGATHILV | 2.26

Variant | protein stability index
SFRKFRYGYNNVVTEPAGATHILV | 2.16
SFRKFRYGYNNVVTCPAGATHILV | 2.03
SFRKFRYGYNNVVTLPAGATHILV | 2.3
SFRKFRYGYNNVVTQPAGATHILV | 1.4
SFRKFRYGYNNVDTIPAGATHILV | 2.74
SFRKFRYGYNNVTTIPAGATHILV | 2.11
SFRKFRYGYNNVGTIPAGATHILV | 2.1
SFRKFRYGYNNVLTIPAGATHILV | 3.1
SFRKFRYGYNNVCTIPAGATHILV | 2.92
SFRKFRYGYNNVNTIPAGATHILV | 2.04
SFRKFRYGYNNVHTIPAGATHILV | 1.74
SFRKFRYGYNNVYTIPAGATHILV | 1.49
SFRKFRYGYNNVFTIPAGATHILV | 2.6
SFRKFRYGYNNVWTIPAGATHILV | 3.05
SFRKFRYGYNNVMTIPAGATHILV | 1.9
SFRKFRYGYNNVRTIPAGATHILV | 3.77
SFRKFRYGYNNVITIPAGATHILV | 2.07
SFRKFRYGYNNVKTIPAGATHILV | 1.97
SFRKFRYGYNNVSTIPAGATHILV | 1.82
SFRKFRYGYNNVATIPAGATHILV | 3.18
SFRKFRYGYNNVETIPAGATHILV | 2.73
SFRKFRYGYNNVQTIPAGATHILV | 1.8
